Source: paper PMC12951562 (2026)
Non-standard residues stand in square brackets, D forms with d. No end group written: not given here. pY = N[C@@H](Cc1ccc(OP(=O)(O)O)cc1)C(=O)O

T1: caffeic acid-pYEEIE
T1 chain: {caffeic acid}-[pY]EEIE

T2: Ac-pYEEIE-NH2 (SMILES CC[C@H](C)[C@H](NC(=O)[C@H](CCC(=O)O)NC(=O)[C@H](CCC(=O)O)NC(=O)[C@H](Cc1ccc(OP(=O)(O)O)cc1)NC(C)=O)C(=O)N[C@@H](CCC(=O)O)C(N)=O)
T2 chain: Ac-[pY]EEIE-NH2


Tests used:
[1] = biological target: T1, caffeic acid-pYEEIE; assay: competition binding assay (SH2scan, qPCR)
[2] = biological target: T2, Ac-pYEEIE-NH2; assay: competition binding assay (SH2scan, qPCR)

Row | Binder | Kd [1] [µM] | Kd [2] [µM]
1 | FYN SH2 (protein) AEEWYFGKLGRKDAERQLLSFGNPRGTFLIRESETTKGAYSLSIRDWDDMKGDHVKHYKIRKLDNGGYYITTRAQFETLQQLVQHYSERAAGLCCRLVVPCHKG | 0.00053 | 3.3
2 | PIK3R3 C-terminal SH2 (protein) WFVEDINRVQAEDLLYGKPDGAFLIRESSKKGCYACSVVADGEVKHCVIYSTARGYGFAEPYNLYSSLKELVLHYQQTSLVQHNDSLNVRLAYPV |  | 14.9
3 | FES SH2 (protein) EQLWYHGAIPRAEVAELLVHSGDFLVRESQGKQEYVLSVLWDGLPRHFIIQSLDNLYRLEGEGFPSIPLLIDHLLSTQQPLTKKSGVVLHRAVPKD |  | 4.2
4 | YES SH2 (protein) AEEWYFGKMGRKDAERLLLNPGNQRGIFLVRESETTKGAYSLSIRDWDEIRGDNVKHYKIRKLDNGGYYITTRAQFDTLQKLVKHYTEHADGLCHKLTTVCPTV |  | 3.8
